{
  "source": "paper PMC13043311",
  "about": "“2′-O-Methyl-guanosine RNA fragments antagonize TLR7 and TLR8 to limit autoimmunity”",
  "key": {"[1]": {"target": "Macaca mulatta TLR7 (mmTLR7) ectodomain (Macaca mulatta)", "experiment": "cryo-EM structure; TLR7 in complex with mGrUrC^PO; resolution 2.9 Å"}, "[2]": {"target": "Macaca mulatta TLR7 (mmTLR7) ectodomain (Macaca mulatta)", "experiment": "cryo-EM structure; TLR7 in complex with mGrArA^PS (mixture of four PS stereoisomers); resolution 2.7 Å"}, "[3]": {"target": "Macaca mulatta TLR7 (mmTLR7) ectodomain (Macaca mulatta)", "experiment": "cryo-EM structure; mmTLR7 ectodomain in the presence of GUC-v1^PS (mGmUdC^PS, mixture of RR, RS, SR and SS configurations); overall resolution 3.0 Å"}, "TLR8 WT (hTLR8) [4]": {"target": "T1, TLR8 WT (hTLR8) (human, UniProt Q9NR97 27-827)", "T1 sequence": "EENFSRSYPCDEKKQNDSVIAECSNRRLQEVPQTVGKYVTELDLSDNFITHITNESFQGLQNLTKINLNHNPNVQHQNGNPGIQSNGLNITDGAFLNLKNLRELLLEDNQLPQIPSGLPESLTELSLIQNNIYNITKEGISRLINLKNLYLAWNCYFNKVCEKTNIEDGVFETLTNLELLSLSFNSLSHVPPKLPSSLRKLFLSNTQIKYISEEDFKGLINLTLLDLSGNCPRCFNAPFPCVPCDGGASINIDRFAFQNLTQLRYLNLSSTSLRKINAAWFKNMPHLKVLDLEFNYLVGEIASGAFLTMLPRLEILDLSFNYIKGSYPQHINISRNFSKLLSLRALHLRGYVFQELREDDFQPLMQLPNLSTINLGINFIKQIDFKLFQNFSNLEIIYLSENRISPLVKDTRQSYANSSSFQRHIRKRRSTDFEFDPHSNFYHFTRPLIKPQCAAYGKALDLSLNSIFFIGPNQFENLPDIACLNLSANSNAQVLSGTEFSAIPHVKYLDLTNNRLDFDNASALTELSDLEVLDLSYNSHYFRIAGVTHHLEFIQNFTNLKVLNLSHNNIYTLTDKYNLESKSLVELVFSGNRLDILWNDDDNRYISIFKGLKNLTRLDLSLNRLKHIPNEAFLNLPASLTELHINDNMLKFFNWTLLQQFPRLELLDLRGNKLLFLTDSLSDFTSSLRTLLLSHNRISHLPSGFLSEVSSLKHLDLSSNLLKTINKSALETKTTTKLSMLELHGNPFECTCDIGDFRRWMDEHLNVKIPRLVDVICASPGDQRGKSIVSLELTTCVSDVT", "experiment": "SPR; average; runs 3±1, 4±1, 5±1, 3±0.4, 4±1, 4±1; SPR with recombinant TLR7/TLR8; buffer, pH and temperature not in the material", "settings": "protein: recombinant; chain copies: 2; single-stranded"}, "TLR7 WT (mmTLR7) [5]": {"target": "T2, TLR7 WT (mmTLR7) (Macaca mulatta, UniProt B3Y653 27-839)", "T2 sequence": "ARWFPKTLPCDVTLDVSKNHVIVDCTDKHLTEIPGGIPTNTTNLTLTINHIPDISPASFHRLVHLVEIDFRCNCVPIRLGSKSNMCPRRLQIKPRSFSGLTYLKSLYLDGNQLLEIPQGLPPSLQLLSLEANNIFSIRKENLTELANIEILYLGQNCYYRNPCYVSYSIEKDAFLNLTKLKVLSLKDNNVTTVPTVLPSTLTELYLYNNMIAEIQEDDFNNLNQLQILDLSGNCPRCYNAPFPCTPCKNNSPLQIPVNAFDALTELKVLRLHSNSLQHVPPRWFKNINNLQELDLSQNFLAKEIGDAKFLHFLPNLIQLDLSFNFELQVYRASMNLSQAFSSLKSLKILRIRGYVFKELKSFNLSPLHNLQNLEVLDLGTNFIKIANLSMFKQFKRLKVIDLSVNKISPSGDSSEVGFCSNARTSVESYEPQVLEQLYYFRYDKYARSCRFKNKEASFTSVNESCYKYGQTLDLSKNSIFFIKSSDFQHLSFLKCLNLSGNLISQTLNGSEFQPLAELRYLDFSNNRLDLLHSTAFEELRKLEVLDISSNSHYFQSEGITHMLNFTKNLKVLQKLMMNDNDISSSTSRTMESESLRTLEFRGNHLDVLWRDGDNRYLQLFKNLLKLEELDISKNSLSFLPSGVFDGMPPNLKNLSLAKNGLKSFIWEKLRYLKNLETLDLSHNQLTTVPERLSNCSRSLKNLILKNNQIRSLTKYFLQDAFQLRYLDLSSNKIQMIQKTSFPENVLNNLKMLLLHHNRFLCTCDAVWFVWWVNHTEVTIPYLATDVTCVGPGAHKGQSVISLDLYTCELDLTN", "experiment": "SPR; average stated in text; table runs 38±2, 32±2, 30±1, 20±11, 11±1 (mean 26.2); SPR with recombinant TLR7/TLR8; buffer, pH and temperature not in the material", "settings": "protein: recombinant; chain copies: 2; single-stranded"}, "TLR8 WT (hTLR8) [6]": {"target": "T1, TLR8 WT (hTLR8)", "experiment": "SPR; negligible binding; SPR with recombinant TLR7/TLR8; buffer, pH and temperature not in the material", "settings": "protein: recombinant; chain copies: 2; single-stranded"}, "TLR7 WT (mmTLR7) [7]": {"target": "T2, TLR7 WT (mmTLR7)", "experiment": "SPR; negligible binding; SPR with recombinant TLR7/TLR8; buffer, pH and temperature not in the material", "settings": "protein: recombinant; chain copies: 2; single-stranded"}, "TLR7 WT (mmTLR7) [8]": {"target": "T2, TLR7 WT (mmTLR7)", "experiment": "cryo-EM; stereoisomer mixture, modeled as SS; 2.7 A; buffer, pH and temperature not in the material", "settings": "protein: recombinant; chain copies: 2; single-stranded"}, "TLR8 F495S": {"target": "T3, TLR8 F495S (human, UniProt Q9NR97 27-827, F495S)", "T3 sequence": "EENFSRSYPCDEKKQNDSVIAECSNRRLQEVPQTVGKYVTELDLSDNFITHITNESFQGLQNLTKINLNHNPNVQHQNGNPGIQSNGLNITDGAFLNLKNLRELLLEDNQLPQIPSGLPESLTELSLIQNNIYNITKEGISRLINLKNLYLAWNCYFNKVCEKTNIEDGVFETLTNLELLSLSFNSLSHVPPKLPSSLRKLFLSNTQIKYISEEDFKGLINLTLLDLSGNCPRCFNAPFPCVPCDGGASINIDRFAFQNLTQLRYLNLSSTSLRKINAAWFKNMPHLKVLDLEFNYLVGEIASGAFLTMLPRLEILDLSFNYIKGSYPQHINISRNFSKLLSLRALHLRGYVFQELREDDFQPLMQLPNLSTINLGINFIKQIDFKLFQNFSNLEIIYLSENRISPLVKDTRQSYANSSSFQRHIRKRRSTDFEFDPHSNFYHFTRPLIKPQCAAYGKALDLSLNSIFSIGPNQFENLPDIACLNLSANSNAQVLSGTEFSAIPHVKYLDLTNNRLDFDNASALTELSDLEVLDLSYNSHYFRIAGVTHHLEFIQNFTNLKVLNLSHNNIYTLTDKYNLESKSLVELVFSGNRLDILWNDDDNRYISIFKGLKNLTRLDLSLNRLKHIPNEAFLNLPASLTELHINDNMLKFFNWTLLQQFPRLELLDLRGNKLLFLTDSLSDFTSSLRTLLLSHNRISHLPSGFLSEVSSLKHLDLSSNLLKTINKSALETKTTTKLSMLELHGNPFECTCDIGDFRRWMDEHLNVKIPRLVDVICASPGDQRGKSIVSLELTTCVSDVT", "experiment": "SPR; no binding observed; SPR with recombinant TLR7/TLR8; buffer, pH and temperature not in the material", "settings": "protein: recombinant; chain copies: 2; single-stranded"}, "TLR8 WT (hTLR8) [9]": {"target": "T1, TLR8 WT (hTLR8)", "experiment": "SPR; mean computed from runs 1.8±0.2, 1.8±0.2, 1.5±0.2; SPR with recombinant TLR7/TLR8; buffer, pH and temperature not in the material", "settings": "protein: recombinant; chain copies: 2; single-stranded"}, "TLR8 I403S": {"target": "T4, TLR8 I403S (human, UniProt Q9NR97 27-827, I403S)", "T4 sequence": "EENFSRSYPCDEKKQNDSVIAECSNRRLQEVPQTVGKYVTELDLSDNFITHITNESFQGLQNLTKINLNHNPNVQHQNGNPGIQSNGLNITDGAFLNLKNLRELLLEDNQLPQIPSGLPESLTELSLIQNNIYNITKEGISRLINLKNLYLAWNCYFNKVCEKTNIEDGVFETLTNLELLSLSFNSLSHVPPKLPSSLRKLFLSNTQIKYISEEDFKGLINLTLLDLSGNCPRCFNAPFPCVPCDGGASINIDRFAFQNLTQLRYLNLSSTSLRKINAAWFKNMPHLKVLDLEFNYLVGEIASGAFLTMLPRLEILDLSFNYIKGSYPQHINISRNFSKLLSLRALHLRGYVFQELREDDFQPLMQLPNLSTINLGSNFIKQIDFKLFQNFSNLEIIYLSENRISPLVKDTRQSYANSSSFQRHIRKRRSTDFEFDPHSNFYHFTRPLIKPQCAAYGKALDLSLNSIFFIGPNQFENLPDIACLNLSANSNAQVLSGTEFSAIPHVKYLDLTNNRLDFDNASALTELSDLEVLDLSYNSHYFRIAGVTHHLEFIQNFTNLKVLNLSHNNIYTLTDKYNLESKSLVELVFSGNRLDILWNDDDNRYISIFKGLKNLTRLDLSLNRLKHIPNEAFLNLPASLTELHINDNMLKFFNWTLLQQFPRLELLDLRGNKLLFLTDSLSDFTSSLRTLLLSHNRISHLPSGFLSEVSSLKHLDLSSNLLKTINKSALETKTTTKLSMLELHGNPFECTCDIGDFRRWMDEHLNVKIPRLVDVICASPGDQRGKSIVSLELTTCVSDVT", "experiment": "SPR; mean computed from runs 7.6±0.5, 9.7±0.9, 7.5±0.3; SPR with recombinant TLR7/TLR8; buffer, pH and temperature not in the material", "settings": "protein: recombinant; chain copies: 2; single-stranded"}, "TLR8 WT (hTLR8) [10]": {"target": "T1, TLR8 WT (hTLR8)", "experiment": "SPR; control of the nucleoside series; mean computed from runs 1.4±0.9, 1.5±0.09, 1.6±0.1; SPR with recombinant TLR7/TLR8; buffer, pH and temperature not in the material", "settings": "protein: recombinant; chain copies: 2; single-stranded"}, "TLR8 WT (hTLR8) [11]": {"target": "T1, TLR8 WT (hTLR8)", "experiment": "SPR; not detected; SPR with recombinant TLR7/TLR8; buffer, pH and temperature not in the material", "settings": "protein: recombinant; chain copies: 2; single-stranded"}, "TLR7 WT (mmTLR7) [12]": {"target": "T2, TLR7 WT (mmTLR7)", "experiment": "SPR; average; runs 7±2, 7±1, 6±1, 4±2, 4±2; SPR with recombinant TLR7/TLR8; buffer, pH and temperature not in the material", "settings": "protein: recombinant; chain copies: 2; single-stranded"}, "TLR8 WT (hTLR8) [13]": {"target": "T1, TLR8 WT (hTLR8)", "experiment": "SPR; average; runs 5±1, 7±1, 5±1, 12±3, 7±1, 11±2; SPR with recombinant TLR7/TLR8; buffer, pH and temperature not in the material", "settings": "protein: recombinant; chain copies: 2; single-stranded"}},
  "data": [
    {"molecule": "Macaca mulatta TLR7 (mmTLR7) ectodomain (receptor)", "values": [
      {"measurement": "stoichiometry N", "setting": "[1]", "result": 2},
      {"measurement": "stoichiometry N", "setting": "[2]", "result": 2},
      {"measurement": "stoichiometry N", "setting": "[3]", "result": 2}
    ]},
    {"molecule": "GAG (XNA, 2'-OMe G1, 2'-OMe A2, DNA G3; phosphorothioate linkages, stereo-random)", "note": "[GAG-v1 PS (mGmAdG)]", "values": [
      {"measurement": "Kd", "setting": "TLR8 WT (hTLR8) [4]", "result": 4, "unit": "µM"},
      {"measurement": "Kd", "setting": "TLR7 WT (mmTLR7) [5]", "result": 20.2, "unit": "µM"}
    ]},
    {"molecule": "GTC (XNA, DNA G1, DNA T2, 2'-OMe C3; phosphorothioate linkages, stereo-random)", "note": "[GUC-v6 PS (dGdTmC)]", "values": [
      {"measurement": "binding result", "setting": "TLR8 WT (hTLR8) [6]", "result": "no binding"},
      {"measurement": "binding result", "setting": "TLR7 WT (mmTLR7) [7]", "result": "no binding"}
    ]},
    {"molecule": "GAA (XNA, 2'-OMe G1, RNA A2 A3; phosphorothioate linkages, stereo-random)", "note": "[mGrArA PS]", "values": [
      {"measurement": "binding result", "setting": "TLR7 WT (mmTLR7) [8]", "result": "binds"},
      {"measurement": "binding result", "setting": "TLR8 F495S", "result": "no binding"},
      {"measurement": "Kd", "setting": "TLR8 WT (hTLR8) [9]", "result": 1.7, "unit": "µM"},
      {"measurement": "Kd", "setting": "TLR8 I403S", "result": 8.27, "unit": "µM"},
      {"measurement": "Kd", "setting": "TLR8 WT (hTLR8) [10]", "result": 1.5, "unit": "µM"}
    ]},
    {"molecule": "GUC (XNA, 2'-OMe G1, 2'-OMe U2, DNA C3; phosphorothioate linkages, stereo-random)", "note": "[GUC-v1 PS (mGmUdC)]", "values": [
      {"measurement": "binding result", "setting": "TLR8 WT (hTLR8) [11]", "result": "no binding"},
      {"measurement": "Kd", "setting": "TLR7 WT (mmTLR7) [12]", "result": 5.6, "unit": "µM"}
    ]},
    {"molecule": "GCC (XNA, 2'-OMe G1, DNA C2, DNA C3; phosphorothioate linkages, stereo-random)", "note": "[GCC-v4 PS (mGdCdC)]", "values": [
      {"measurement": "binding result", "setting": "TLR7 WT (mmTLR7) [7]", "result": "no binding"},
      {"measurement": "Kd", "setting": "TLR8 WT (hTLR8) [13]", "result": 8, "unit": "µM"}
    ]}
  ]
}
